# Experimental data taken from patent publication US20150344570A1 (published 2015).
# T1: FcγRIIb extracellular domain with C-terminal His tag (human, UniProt P31994 43-217)
# T1 construct: extracellular domain; also called FcgRIIb; 2b
# T1 sequence (looked up): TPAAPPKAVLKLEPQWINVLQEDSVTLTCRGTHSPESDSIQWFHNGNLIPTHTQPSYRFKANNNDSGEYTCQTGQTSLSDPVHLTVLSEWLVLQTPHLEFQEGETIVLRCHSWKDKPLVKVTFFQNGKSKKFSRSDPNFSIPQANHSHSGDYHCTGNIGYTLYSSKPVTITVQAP
# Molecular target: T1, FcγRIIb extracellular domain with …
# Assay: SPR (Biacore), relative binding
# Description: Analysis of interaction between objective antibody and the FcγR was carried out using Biacore T100 (GE Healthcare). HBS-EP+ (GE Healthcare) was used as the running buffer, and the measurement temperature was set to 25° C. Chips produced by immobilizing the antigen peptide by the amine coupling method to a Series S Sencor Chip CM5 (GE Healthcare), or alternatively, chips produced by allowing preliminarily biotinylated antigen peptides to interact with and immobilize onto a Series S Sensor Chip SA (certified) (GE Healthcare) were used. Antibodies of interest were captured onto an antigen peptide-immobilized chip, and allowed to interact to each FcγR diluted with running buffer. To regenerate and repeatedly use the chip, the antibodies captured on the chip were washed off by reacting 10 mM glycine-HCl, pH 1.5.
He/Con_2b,Ho/Con_2b,Binder
137 % of HeCon Ab GpH7-A5/GpH7-B3/GpL16-k0,–,"GpH7-A5/GpH7-B3 variant A330_05P/GpL16-k0 (antibody, human IgG1, kappa, also called He Ab A330_05P) heavy 1: not shown heavy 2: not shown light: DIVMTQSPLSLPVTPGEPASISCQASESLVHSNRNTYLHWYLQKPGQSPQLLIYKVSNRFSGVPDRFSGSGSGTDFTLKISRVEAEDVGVYYCSQNTHVPPTFGQGTKVEIERTVAAPSVFIFPPSDEQLKSGTASVVCLLNNFYPREAKVQWKVDNALQSGNSQESVTEQDSKDSTYSLSSTLTLSKADYEKHKVYACEVTHQGLSSPVTKSFNRGEC"
–,103 % of HoCon Ab GpH7-B3/GpL16-k0,"GpH7-B3 variant S337_16H/GpL16-k0 (antibody, human IgG1, kappa, also called Ho Ab S337_16H) heavy: not shown light: DIVMTQSPLSLPVTPGEPASISCQASESLVHSNRNTYLHWYLQKPGQSPQLLIYKVSNRFSGVPDRFSGSGSGTDFTLKISRVEAEDVGVYYCSQNTHVPPTFGQGTKVEIERTVAAPSVFIFPPSDEQLKSGTASVVCLLNNFYPREAKVQWKVDNALQSGNSQESVTEQDSKDSTYSLSSTLTLSKADYEKHKVYACEVTHQGLSSPVTKSFNRGEC"
113 % of HeCon Ab GpH7-A5/GpH7-B3/GpL16-k0,–,"GpH7-A5/GpH7-B3 variant A327_18N/GpL16-k0 (antibody, human IgG1, kappa, also called He Ab A327_18N) heavy 1: not shown heavy 2: not shown light: DIVMTQSPLSLPVTPGEPASISCQASESLVHSNRNTYLHWYLQKPGQSPQLLIYKVSNRFSGVPDRFSGSGSGTDFTLKISRVEAEDVGVYYCSQNTHVPPTFGQGTKVEIERTVAAPSVFIFPPSDEQLKSGTASVVCLLNNFYPREAKVQWKVDNALQSGNSQESVTEQDSKDSTYSLSSTLTLSKADYEKHKVYACEVTHQGLSSPVTKSFNRGEC"
127 % of HeCon Ab GpH7-A5/GpH7-B3/GpL16-k0,–,"GpH7-A5/GpH7-B3 variant A327_07I/GpL16-k0 (antibody, human IgG1, kappa, also called He Ab A327_07I) heavy 1: not shown heavy 2: not shown light: DIVMTQSPLSLPVTPGEPASISCQASESLVHSNRNTYLHWYLQKPGQSPQLLIYKVSNRFSGVPDRFSGSGSGTDFTLKISRVEAEDVGVYYCSQNTHVPPTFGQGTKVEIERTVAAPSVFIFPPSDEQLKSGTASVVCLLNNFYPREAKVQWKVDNALQSGNSQESVTEQDSKDSTYSLSSTLTLSKADYEKHKVYACEVTHQGLSSPVTKSFNRGEC"
–,104 % of HoCon Ab GpH7-B3/GpL16-k0,"GpH7-B3 variant T335_15Y/GpL16-k0 (antibody, human IgG1, kappa, also called Ho Ab T335_15Y) heavy: not shown light: DIVMTQSPLSLPVTPGEPASISCQASESLVHSNRNTYLHWYLQKPGQSPQLLIYKVSNRFSGVPDRFSGSGSGTDFTLKISRVEAEDVGVYYCSQNTHVPPTFGQGTKVEIERTVAAPSVFIFPPSDEQLKSGTASVVCLLNNFYPREAKVQWKVDNALQSGNSQESVTEQDSKDSTYSLSSTLTLSKADYEKHKVYACEVTHQGLSSPVTKSFNRGEC"
–,90.7 % of HoCon Ab GpH7-B3/GpL16-k0,"GpH7-B3 variant S337_08L/GpL16-k0 (antibody, human IgG1, kappa, also called Ho Ab S337_08L) heavy: not shown light: DIVMTQSPLSLPVTPGEPASISCQASESLVHSNRNTYLHWYLQKPGQSPQLLIYKVSNRFSGVPDRFSGSGSGTDFTLKISRVEAEDVGVYYCSQNTHVPPTFGQGTKVEIERTVAAPSVFIFPPSDEQLKSGTASVVCLLNNFYPREAKVQWKVDNALQSGNSQESVTEQDSKDSTYSLSSTLTLSKADYEKHKVYACEVTHQGLSSPVTKSFNRGEC"
–,94.4 % of HoCon Ab GpH7-B3/GpL16-k0,"GpH7-B3 variant T335_20W/GpL16-k0 (antibody, human IgG1, kappa, also called Ho Ab T335_20W) heavy: not shown light: DIVMTQSPLSLPVTPGEPASISCQASESLVHSNRNTYLHWYLQKPGQSPQLLIYKVSNRFSGVPDRFSGSGSGTDFTLKISRVEAEDVGVYYCSQNTHVPPTFGQGTKVEIERTVAAPSVFIFPPSDEQLKSGTASVVCLLNNFYPREAKVQWKVDNALQSGNSQESVTEQDSKDSTYSLSSTLTLSKADYEKHKVYACEVTHQGLSSPVTKSFNRGEC"
–,104 % of HoCon Ab GpH7-B3/GpL16-k0,"GpH7-B3 variant T335_07I/GpL16-k0 (antibody, human IgG1, kappa, also called Ho Ab T335_07I) heavy: not shown light: DIVMTQSPLSLPVTPGEPASISCQASESLVHSNRNTYLHWYLQKPGQSPQLLIYKVSNRFSGVPDRFSGSGSGTDFTLKISRVEAEDVGVYYCSQNTHVPPTFGQGTKVEIERTVAAPSVFIFPPSDEQLKSGTASVVCLLNNFYPREAKVQWKVDNALQSGNSQESVTEQDSKDSTYSLSSTLTLSKADYEKHKVYACEVTHQGLSSPVTKSFNRGEC"
–,97.3 % of HoCon Ab GpH7-B3/GpL16-k0,"GpH7-B3 variant T335_19Q/GpL16-k0 (antibody, human IgG1, kappa, also called Ho Ab T335_19Q) heavy: not shown light: DIVMTQSPLSLPVTPGEPASISCQASESLVHSNRNTYLHWYLQKPGQSPQLLIYKVSNRFSGVPDRFSGSGSGTDFTLKISRVEAEDVGVYYCSQNTHVPPTFGQGTKVEIERTVAAPSVFIFPPSDEQLKSGTASVVCLLNNFYPREAKVQWKVDNALQSGNSQESVTEQDSKDSTYSLSSTLTLSKADYEKHKVYACEVTHQGLSSPVTKSFNRGEC"
–,95.2 % of HoCon Ab GpH7-B3/GpL16-k0,"GpH7-B3 variant T335_13S/GpL16-k0 (antibody, human IgG1, kappa, also called Ho Ab T335_13S) heavy: not shown light: DIVMTQSPLSLPVTPGEPASISCQASESLVHSNRNTYLHWYLQKPGQSPQLLIYKVSNRFSGVPDRFSGSGSGTDFTLKISRVEAEDVGVYYCSQNTHVPPTFGQGTKVEIERTVAAPSVFIFPPSDEQLKSGTASVVCLLNNFYPREAKVQWKVDNALQSGNSQESVTEQDSKDSTYSLSSTLTLSKADYEKHKVYACEVTHQGLSSPVTKSFNRGEC"
–,93.4 % of HoCon Ab GpH7-B3/GpL16-k0,"GpH7-B3 variant S337_15Y/GpL16-k0 (antibody, human IgG1, kappa, also called Ho Ab S337_15Y) heavy: not shown light: DIVMTQSPLSLPVTPGEPASISCQASESLVHSNRNTYLHWYLQKPGQSPQLLIYKVSNRFSGVPDRFSGSGSGTDFTLKISRVEAEDVGVYYCSQNTHVPPTFGQGTKVEIERTVAAPSVFIFPPSDEQLKSGTASVVCLLNNFYPREAKVQWKVDNALQSGNSQESVTEQDSKDSTYSLSSTLTLSKADYEKHKVYACEVTHQGLSSPVTKSFNRGEC"
